Reference: patent publication US8389575B2, “Control of enzymatic peracid generation” (E.I. du Pont de Nemours and Company, priority 2008, dated 2013)

Test: Peracetic acid production by Thermotoga neapolitana perhydrolase, control by bicarbonate buffer concentration
Assay type: biochemical
Details: 100 mM triacetin
Procedure: A cell extract of an E. coli transformant expressing perhydrolase from Thermotoga neapolitana (KLP18/pSW196) was prepared by passing a suspension of cell paste (20 wt % wet cell weight) in 0.05 M potassium phosphate buffer (pH 7.0) containing dithiothreitol (1 mM) twice through a French press having a working pressure of 16,000 psi (˜110 MPa). The crude extract was then centrifuged at 20,000×g to remove cellular debris, producing a clarified cell extract that was assayed for total soluble protein (Bicinchoninic Acid Kit for Protein Determination, Sigma Aldrich catalog #BCA1-KT). The clarified extract was heated for 20 min at 75° C., followed immediately by cooling in an ice/water bath. The resulting mixture was centrifuged to remove precipitated protein, and the supernatant collected and assayed for total soluble protein as before. […] The supernatant was frozen in dry ice and stored at −80° C.
Reactions (10 mL total volume) containing triacetin, hydrogen peroxide and heat-treated, centrifuged cell extract supernatant (prepared as described above) were run at 25° C. using sodium bicarbonate buffer concentrations listed in Tables 7 and 8. A control reaction for each reaction condition was run to determine the concentration of peracetic acid produced by chemical perhydrolysis of triacetin by hydrogen peroxide in the absence of added extract protein. Determination of the concentration of peracetic acid in the reaction mixtures was performed according to the method described by Karst et al., supra. Aliquots (0.040 mL) of the reaction mixture were removed at predetermined times and mixed with 0.960 mL of 5 mM phosphoric acid in water; adjustment of the pH of the diluted sample to less than pH 4 immediately terminated the reaction. The resulting solution was filtered using an ULTRAFREE® MC-filter unit (30,000 Normal Molecular Weight Limit (NMWL), Millipore cat #UFC3LKT 00) by centrifugation for 2 min at 12,000 rpm. An aliquot (0.100 mL) of the resulting filtrate was transferred to L5-mL screw cap HPLC vial (Agilent Technologies, Palo Alto, Calif.; #5182-0715) containing 0.300 mL of deionized water, then 0.100 mL of 20 mM MTS (methyl-p-tolyl-sulfide) in acetonitrile was added, the vials capped, and the contents briefly mixed prior to a 10 min incubation at ca. 25° C. in the absence of light. To each vial was then added 0.400 mL of acetonitrile and 0.100 mL of a solution of triphenylphosphine (TPP, 40 mM) in acetonitrile, the vials re-capped, and the resulting solution mixed and incubated at ca. 25° C. for 30 min in the absence of light. To each vial was then added 0.100 mL of 10 mM N,N-diethyl-m-toluamide (DEET; HPLC external standard) and the resulting solution analyzed by HPLC as described below.
Supelco Discovery C8 column (10-cm×4.0-mm, 5 μm) (cat. #569422-U) w/precolumn Supelco Supelguard Discovery C8 (Sigma-Aldrich; cat #59590-U); 10 microliter injection volume; gradient method with CH3CN (Sigma-Aldrich; #270717) and deionized water at 1.0 mL/min and ambient temperature:
The peracetic acid concentrations produced in 1 min, 5 min and 30 min when using either 250 mM or 100 mM hydrogen peroxide are listed in Table 7 and Table 8, respectively.

PAA (ppm), 1 min (NaHCO3 0 mM, initial pH 5.0, 1 min, 100 mM H2O2, 50 μg/mL heated extract total protein): 0 ppm | PAA (ppm), 1 min (NaHCO3 0 mM, initial pH 5.0, 1 min, 250 mM H2O2, 50 μg/mL heated extract total protein): 161 ppm | PAA (ppm), 5 min (NaHCO3 0 mM, initial pH 5.0, 5 min, 100 mM H2O2, 50 μg/mL heated extract total protein): 29 ppm | PAA (ppm), 5 min (NaHCO3 0 mM, initial pH 5.0, 5 min, 250 mM H2O2, 50 μg/mL heated extract total protein): 152 ppm | PAA (ppm), 30 min (NaHCO3 0 mM, initial pH 5.0, 30 min, 100 mM H2O2, 50 μg/mL heated extract total protein): 11 ppm | PAA (ppm), 30 min (NaHCO3 0 mM, initial pH 5.0, 30 min, 250 mM H2O2, 50 μg/mL heated extract total protein): 180 ppm | PAA (ppm), 1 min (NaHCO3 1.0 mM, initial pH 6.0, 1 min, 100 mM H2O2, 50 μg/mL heated extract total protein): 167 ppm | PAA (ppm), 1 min (NaHCO3 1.0 mM, initial pH 6.0, 1 min, 250 mM H2O2, 50 μg/mL heated extract total protein): 511 ppm | PAA (ppm), 5 min (NaHCO3 1.0 mM, initial pH 6.0, 5 min, 100 mM H2O2, 50 μg/mL heated extract total protein): 152 ppm | PAA (ppm), 5 min (NaHCO3 1.0 mM, initial pH 6.0, 5 min, 250 mM H2O2, 50 μg/mL heated extract total protein): 610 ppm | PAA (ppm), 30 min (NaHCO3 1.0 mM, initial pH 6.0, 30 min, 100 mM H2O2, 50 μg/mL heated extract total protein): 176 ppm | PAA (ppm), 30 min (NaHCO3 1.0 mM, initial pH 6.0, 30 min, 250 mM H2O2, 50 μg/mL heated extract total protein): 608 ppm | PAA (ppm), 1 min (NaHCO3 2.5 mM, initial pH 6.5, 1 min, 100 mM H2O2, 50 μg/mL heated extract total protein): 291 ppm | PAA (ppm), 1 min (NaHCO3 2.5 mM, initial pH 6.5, 1 min, 250 mM H2O2, 50 μg/mL heated extract total protein): 718 ppm | PAA (ppm), 5 min (NaHCO3 2.5 mM, initial pH 6.5, 5 min, 100 mM H2O2, 50 μg/mL heated extract total protein): 510 ppm | PAA (ppm), 5 min (NaHCO3 2.5 mM, initial pH 6.5, 5 min, 250 mM H2O2, 50 μg/mL heated extract total protein): 1242 ppm | PAA (ppm), 30 min (NaHCO3 2.5 mM, initial pH 6.5, 30 min, 100 mM H2O2, 50 μg/mL heated extract total protein): 488 ppm | PAA (ppm), 30 min (NaHCO3 2.5 mM, initial pH 6.5, 30 min, 250 mM H2O2, 50 μg/mL heated extract total protein): 1179 ppm | PAA (ppm), 1 min (NaHCO3 5.0 mM, initial pH 6.5, 1 min, 100 mM H2O2, 50 μg/mL heated extract total protein): 377 ppm | PAA (ppm), 1 min (NaHCO3 5.0 mM, initial pH 6.5, 1 min, 250 mM H2O2, 50 μg/mL heated extract total protein): 866 ppm | PAA (ppm), 5 min (NaHCO3 5.0 mM, initial pH 6.5, 5 min, 100 mM H2O2, 50 μg/mL heated extract total protein): 955 ppm | PAA (ppm), 5 min (NaHCO3 5.0 mM, initial pH 6.5, 5 min, 250 mM H2O2, 50 μg/mL heated extract total protein): 1894 ppm | PAA (ppm), 30 min (NaHCO3 5.0 mM, initial pH 6.5, 30 min, 100 mM H2O2, 50 μg/mL heated extract total protein): 989 ppm | PAA (ppm), 30 min (NaHCO3 5.0 mM, initial pH 6.5, 30 min, 250 mM H2O2, 50 μg/mL heated extract total protein): 1931 ppm | PAA (ppm), 1 min (NaHCO3 10 mM, initial pH 7.0, 1 min, 250 mM H2O2, 50 μg/mL heated extract total protein): 1042 ppm | PAA (ppm), 5 min (NaHCO3 10 mM, initial pH 7.0, 5 min, 250 mM H2O2, 50 μg/mL heated extract total protein): 2334 ppm | PAA (ppm), 30 min (NaHCO3 10 mM, initial pH 7.0, 30 min, 250 mM H2O2, 50 μg/mL heated extract total protein): 2384 ppm | PAA (ppm), 1 min (NaHCO3 10 mM, initial pH 8.1, 1 min, 100 mM H2O2, 50 μg/mL heated extract total protein): 418 ppm | PAA (ppm), 5 min (NaHCO3 10 mM, initial pH 8.1, 5 min, 100 mM H2O2, 50 μg/mL heated extract total protein): 1035 ppm | PAA (ppm), 30 min (NaHCO3 10 mM, initial pH 8.1, 30 min, 100 mM H2O2, 50 μg/mL heated extract total protein): 1633 ppm | PAA (ppm), 1 min (NaHCO3 25 mM, initial pH 8.1, 1 min, 100 mM H2O2, 50 μg/mL heated extract total protein): 497 ppm | PAA (ppm), 1 min (NaHCO3 25 mM, initial pH 8.1, 1 min, 250 mM H2O2, 50 μg/mL heated extract total protein): 1037 ppm | PAA (ppm), 5 min (NaHCO3 25 mM, initial pH 8.1, 5 min, 100 mM H2O2, 50 μg/mL heated extract total protein): 1319 ppm | PAA (ppm), 5 min (NaHCO3 25 mM, initial pH 8.1, 5 min, 250 mM H2O2, 50 μg/mL heated extract total protein): 2655 ppm | PAA (ppm), 30 min (NaHCO3 25 mM, initial pH 8.1, 30 min, 100 mM H2O2, 50 μg/mL heated extract total protein): 2095 ppm | PAA (ppm), 30 min (NaHCO3 25 mM, initial pH 8.1, 30 min, 250 mM H2O2, 50 μg/mL heated extract total protein): 3503 ppm
B1: Thermotoga neapolitana perhydrolase: acetyl xylan esterase with perhydrolase activity from Thermotoga neapolitana (SEQ ID NO: 14), cell extract of E. coli KLP18/pSW196 (protein, listed as Thermotoga neapolitana)
chain: MAFFDMPLEELKKYRPERYEEKDFDEFWRETLKESEGFPLDPVFEKVDFHLKTVETYDVTFSGYRGQRIKGWLLVPKLAEEKLPCVVQYIGYNGGRGFPHDWLFWPSMGYICFVMDTRGQGSGWMKGDTPDYPEGPVDPQYPGFMTRGILDPGTYYYRRVFVDAVRAVEAAISFPRVDSRKVVVAGGSQGGGIALAVSALSNRVKALLCDVPFLCHFRRAVQLVDTHPYVEITNFLKTHRDKEEIVFRTLSYFDGVNFAARAKVPALFSVGLMDTICPPSTVFAAYNHYAGPKEIRIYPYNNHEGGGSFQAIEQVKFLKRLFEEG
